# Data reported in patent US20080305111A1 (VACCINEX, published 2008).
# Experiments:
# [1] = target: T1, C35 protein (recombinant, construct not stated) (human, UniProt Q9BRT3 1-115, limits assumed); assay: ELISA and Western blot
# T1 construct: also called recombinant C35 protein; control C35 protein
# T1 sequence: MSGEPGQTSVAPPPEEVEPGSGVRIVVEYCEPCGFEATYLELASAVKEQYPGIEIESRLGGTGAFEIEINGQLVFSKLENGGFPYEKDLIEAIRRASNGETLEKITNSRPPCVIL
# [2] = target: T1, C35 protein (recombinant, construct not …); assay: ELISA on C35 or control protein A27L, secreted antibody from HeLa cells
# [3] = target: T2, #5 (8454); assay: Western blot of partially Lys-C digested rhC35, MAb 163, goat anti-human-HRP, TMB
# T2 construct: One member of the group m17; also called predicted partial Lys-C digest fragment #5 of rhC35; 8kDa N-terminal fragment
# T2 N-terminal fragment of 6-His-tagged rhC35, from the N-terminus to the first Lys-C tick: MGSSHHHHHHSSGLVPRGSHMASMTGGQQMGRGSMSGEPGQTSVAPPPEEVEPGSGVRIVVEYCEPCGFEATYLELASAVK
# [4] = target: T3, 6×His-tagged recombinant human C35 (human); assay: SPR (Biacore), MAb 163 captured on goat anti-human IgG Fc on a CM5 chip, rC35 in solution, 1:1 kinetic model
# T3 construct: Made in E. coli; also called rhC35; rC35
binder,measurement,setting,value
"1B3 murine anti-C35 monoclonal antibody (antibody, V domains shown, also called hybridoma 1B3.6.1) VH: EVQLQESGPSLVKPSQTLSLTCSVTGDSITSGYWNWIRKFPGNKLEYVGYISYSGGTYYNPSLKSRISITRDTSKNHYYLQLNSVTTEDTATYYCARGAYYGGAFFPYFDVWGAGTTVTVSS VL: DVQITQSPSFLAASPGETITINCRASKYISKHLVWYQEKPGETKKLLIYSGSTLQSGLPSRFSGSGSGTDFTLTISSLEPEDFAMYYCQQHNEYPLTFGAGTKLELK",binding result,[1],binds
"MAb 165 (antibody, V domains shown, also called 141D10 VH H732 with UH8 VK L120) VH: QVQLQESGPGLVKPPETLSLTCNVSGGSIGRYYWNWIRQSPGKGLEWIGHIHYSGSTIYHPSLKSRVSISLDTSKNQVSLKLSSVTAADTAVYYCARGAYYGGAFFPYFDVWGQGTTVTVSS VL: DIQMTQSPSSLSASMGDRVTITCRASQGIRNHLAWYQQKPGKAPNLLISAASTLQSGVPTRFSGSGSGTDFTLTISSLQPEDSATYYCQQYNRYPLTFGQGTKLEIK",binding result,[2],binds
"MAb 163 human anti-C35 monoclonal antibody (antibody, V domains shown, Fully human antibody (clones H730 and L74), detected or captured with anti-human IgG reagents) VH: EVQLVESGGGLVKPGGSLRLSCEVSGITFSNAWMSWVRQAPGKGLEWVGRIKSKTDGGTTDYAAPVKGRFTISRDDSKNTLYLQMNSLKTEDTAVYYCSIGYYYDSSFKYGMDVWGQGTTVTVSS VL: DIQMTQSPATLSASVGDRVTITCRASQSISRWLAWYQQKPGQAPKVLIYKASTLQSGVPSRFSGSGSGTEFSLTINSLQPDDFATYYCQQYYSYLRTFGQGTKLEIK",binding result,[3],no binding
same,Ka,[4],2.96e+08 M⁻¹
same,Kd,[4],3.38 nM
same,koff,[4],0.000959 s⁻¹
same,kon,[4],284000 M⁻¹ s⁻¹
